{"source": "paper doi:10.1101/2024.10.21.619555", "about": "(bioRxiv, 2024)", "key": {"SEC": {"target": "the molecule itself", "assay": "SEC"}, "recombinant RBP4": {"target": "recombinant RBP4 (UniProt P02753 19-201)", "assay": "cross-linking"}, "[1]": {"target": "the molecule itself", "assay": "single-molecule dual-color photobleaching"}, "single-receptor tracking": {"target": "the molecule itself", "assay": "single-receptor tracking"}, "[2]": {"target": "the molecule itself", "assay": "single-molecule photobleaching"}}}
{"binder": "recombinant DR6 ECD (domain or fragment, UniProt O75509 42-349, looked up) QPEQKASNLIGTYRHVDRATGQVLTCDKCPAGTYVSEHCTNTSLRVCSSCPVGTFTRHENGIEKCHDCSQPCPWPMIEKLPCAALTDRECTCPPGMFQSNATCAPHTVCPVGWGVRKKGTETEDVRCKQCARGTFSDVPSSVMKCKAYTDCLSQNLVVIKPGTKETDNVCGTLPSFSSSTSPSPGTAIFPRPEHMETHEVPSSTYVPKGMNSTESNSSASVRPKVLSSIQEGTVPDNTSSARGKEDVNKTLPNLQVVNHQQGPHHRHILKLLPSMEATGGEKSSTPIKGPKRGHPRQNLHKHFDINEH", "values": [{"measurement": "binding result", "setting": "SEC", "value": "binds"}, {"measurement": "stoichiometry N", "setting": "recombinant RBP4", "value": 1}]}
{"binder": "DR6 ECD-Halo (domain or fragment, UniProt O75509 42-349, looked up, Alexa Fluor 660 label) QPEQKASNLIGTYRHVDRATGQVLTCDKCPAGTYVSEHCTNTSLRVCSSCPVGTFTRHENGIEKCHDCSQPCPWPMIEKLPCAALTDRECTCPPGMFQSNATCAPHTVCPVGWGVRKKGTETEDVRCKQCARGTFSDVPSSVMKCKAYTDCLSQNLVVIKPGTKETDNVCGTLPSFSSSTSPSPGTAIFPRPEHMETHEVPSSTYVPKGMNSTESNSSASVRPKVLSSIQEGTVPDNTSSARGKEDVNKTLPNLQVVNHQQGPHHRHILKLLPSMEATGGEKSSTPIKGPKRGHPRQNLHKHFDINEH", "values": [{"measurement": "stoichiometry N", "setting": "[1]", "value": 2}]}
{"binder": "quantum dot-labeled DR6, wild type (receptor, UniProt O75509 42-655, looked up, quantum dot label) QPEQKASNLIGTYRHVDRATGQVLTCDKCPAGTYVSEHCTNTSLRVCSSCPVGTFTRHENGIEKCHDCSQPCPWPMIEKLPCAALTDRECTCPPGMFQSNATCAPHTVCPVGWGVRKKGTETEDVRCKQCARGTFSDVPSSVMKCKAYTDCLSQNLVVIKPGTKETDNVCGTLPSFSSSTSPSPGTAIFPRPEHMETHEVPSSTYVPKGMNSTESNSSASVRPKVLSSIQEGTVPDNTSSARGKEDVNKTLPNLQVVNHQQGPHHRHILKLLPSMEATGGEKSSTPIKGPKRGHPRQNLHKHFDINEHLPWMIVLFLLLVLVVIVVCSIRKSSRTLKKGPRQDPSAIVEKAGLKKSMTPTQNREKWIYYCNGHGIDILKLVAAQVGSQWKDIYQFLCNASEREVAAFSNGYTADHERAYAALQHWTIRGPEASLAQLISALRQHRRNDVVEKIRGLMEDTTQLETDKLALPMSPSPLSPSPIPSPNAKLENSALLTVEPSPQDKNKGFFVDESEPLLRCDSTSSGSSALSRNGSFITKEKKDTVLRQVRLDPCDLQPIFDDMLHFLNPEELRVIEEIPQAEDKLDRLFEIIGVKSQEASQTLLDSVYSHLPDLL", "values": [{"measurement": "fold lower turnover into the monomeric state than DR6 ΔECD", "setting": "single-receptor tracking", "value": 2.1, "unit": "fold"}, {"measurement": "stoichiometry N", "setting": "single-receptor tracking", "value": 2}]}
{"binder": "SNAP-DR6 (receptor, UniProt O75509 42-655, looked up, SNAP-Surface Alexa Fluor 488 label) QPEQKASNLIGTYRHVDRATGQVLTCDKCPAGTYVSEHCTNTSLRVCSSCPVGTFTRHENGIEKCHDCSQPCPWPMIEKLPCAALTDRECTCPPGMFQSNATCAPHTVCPVGWGVRKKGTETEDVRCKQCARGTFSDVPSSVMKCKAYTDCLSQNLVVIKPGTKETDNVCGTLPSFSSSTSPSPGTAIFPRPEHMETHEVPSSTYVPKGMNSTESNSSASVRPKVLSSIQEGTVPDNTSSARGKEDVNKTLPNLQVVNHQQGPHHRHILKLLPSMEATGGEKSSTPIKGPKRGHPRQNLHKHFDINEHLPWMIVLFLLLVLVVIVVCSIRKSSRTLKKGPRQDPSAIVEKAGLKKSMTPTQNREKWIYYCNGHGIDILKLVAAQVGSQWKDIYQFLCNASEREVAAFSNGYTADHERAYAALQHWTIRGPEASLAQLISALRQHRRNDVVEKIRGLMEDTTQLETDKLALPMSPSPLSPSPIPSPNAKLENSALLTVEPSPQDKNKGFFVDESEPLLRCDSTSSGSSALSRNGSFITKEKKDTVLRQVRLDPCDLQPIFDDMLHFLNPEELRVIEEIPQAEDKLDRLFEIIGVKSQEASQTLLDSVYSHLPDLL", "values": [{"measurement": "stoichiometry N", "setting": "[2]", "value": 2}]}
